Where no end group is shown, it is not given here. [ ]: non-standard residue; d: D form. pT = C[C@@H](OP(=O)(O)O)[C@H](N)C(=O)O; pS = N[C@@H](COP(=O)(O)O)C(=O)O
T1: IRSp53-FLAG (wild type), natively phosphorylated (human (from the printed UniProt entry), UniProt Q9UQB8-4 1-521, phosphorylated in HEK293T cells at S325, T340, T360, S366 and a residue within 452SSST455, most likely S454 (mass spectrometry of the purified 14-3-3-binding-competent fraction))
T1 construct: also called pIRSp53; WT IRSp53-FLAG; source: HEK293T, transfected, in lysate; not shown: FLAG, C-terminal, kept
T1 sequence (looked up): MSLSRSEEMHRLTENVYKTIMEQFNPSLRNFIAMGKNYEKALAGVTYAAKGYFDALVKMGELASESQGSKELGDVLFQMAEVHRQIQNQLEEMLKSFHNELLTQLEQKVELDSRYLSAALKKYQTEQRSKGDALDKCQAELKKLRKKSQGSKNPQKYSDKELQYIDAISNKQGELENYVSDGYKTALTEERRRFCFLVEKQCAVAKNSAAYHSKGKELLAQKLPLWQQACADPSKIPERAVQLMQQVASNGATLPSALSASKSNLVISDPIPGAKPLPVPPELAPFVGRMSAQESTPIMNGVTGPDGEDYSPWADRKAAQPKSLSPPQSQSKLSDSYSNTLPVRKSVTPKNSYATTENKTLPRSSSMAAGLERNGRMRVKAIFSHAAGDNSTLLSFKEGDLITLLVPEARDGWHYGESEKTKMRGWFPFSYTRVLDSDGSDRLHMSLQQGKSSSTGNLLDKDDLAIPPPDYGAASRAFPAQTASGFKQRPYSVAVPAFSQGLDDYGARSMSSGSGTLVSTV

T2: 14-3-3θ (human, UniProt P27348 1-245)
T2 construct: 14-3-3θ, human, UniProt P27348; also called 14-3-3 theta; 14-3-3τ
T2 sequence: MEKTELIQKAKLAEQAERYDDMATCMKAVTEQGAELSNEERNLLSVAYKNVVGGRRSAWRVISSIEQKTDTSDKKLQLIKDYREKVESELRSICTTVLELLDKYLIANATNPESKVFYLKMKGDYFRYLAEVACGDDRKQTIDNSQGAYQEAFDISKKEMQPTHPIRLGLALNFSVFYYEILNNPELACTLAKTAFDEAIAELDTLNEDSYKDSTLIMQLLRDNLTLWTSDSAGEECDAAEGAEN


Assays:
Conditions in all cases: both partners purified
[1] = biological target: T1, IRSp53-FLAG (wild type), natively …; assay: pull-down; 14-3-3θ-affinity column: MBP-14-3-3θ bound to amylose resin; FLAG-eluted IRSp53-FLAG loaded; eluted with 200 μM Sites 2,3 peptide
14-3-3θ [2] = biological target: T2, 14-3-3θ; assay: ITC; peptide in the syringe (100 μM singly, 50 μM doubly phosphorylated) titrated into 10 μM 14-3-3θ in the cell; 20 °C; 20 mM HEPES pH 7.5, 150 mM NaCl, 1 mM MgCl2, 0.1 mM TCEP; single-site model
14-3-3θ [3] = biological target: T2, 14-3-3θ; assay: SEC-MALS; 14-3-3θ (4 mg/mL) pre-incubated 2 h at 20 °C with Site 2 (two peptides per dimer) or Sites 2,4 (one peptide per dimer); TSKgel SuperSW2000
2xFLAG-Eps8 = biological target: T3, 2xFLAG-Eps8 (human, UniProt Q12929 1-822); assay: other fluorescence titration; intramolecular FRET sensor (fluorescein/rhodamine on C230 and C519 of IRSp53); Cdc42, Eps8 and/or 14-3-3θ titrated into the sensor, also back to back; 20 °C; 25 mM Tris-HCl pH 7.5, 150 mM NaCl, 1 mM MgCl2, 5% glycerol, 0.1 mM TCEP; observed Kd (Kobs) from the fits
T3 construct: Eps8, human, UniProt Q12929, full length; also called FLAG-tagged Eps8
T3 sequence (Q12929 whole entry): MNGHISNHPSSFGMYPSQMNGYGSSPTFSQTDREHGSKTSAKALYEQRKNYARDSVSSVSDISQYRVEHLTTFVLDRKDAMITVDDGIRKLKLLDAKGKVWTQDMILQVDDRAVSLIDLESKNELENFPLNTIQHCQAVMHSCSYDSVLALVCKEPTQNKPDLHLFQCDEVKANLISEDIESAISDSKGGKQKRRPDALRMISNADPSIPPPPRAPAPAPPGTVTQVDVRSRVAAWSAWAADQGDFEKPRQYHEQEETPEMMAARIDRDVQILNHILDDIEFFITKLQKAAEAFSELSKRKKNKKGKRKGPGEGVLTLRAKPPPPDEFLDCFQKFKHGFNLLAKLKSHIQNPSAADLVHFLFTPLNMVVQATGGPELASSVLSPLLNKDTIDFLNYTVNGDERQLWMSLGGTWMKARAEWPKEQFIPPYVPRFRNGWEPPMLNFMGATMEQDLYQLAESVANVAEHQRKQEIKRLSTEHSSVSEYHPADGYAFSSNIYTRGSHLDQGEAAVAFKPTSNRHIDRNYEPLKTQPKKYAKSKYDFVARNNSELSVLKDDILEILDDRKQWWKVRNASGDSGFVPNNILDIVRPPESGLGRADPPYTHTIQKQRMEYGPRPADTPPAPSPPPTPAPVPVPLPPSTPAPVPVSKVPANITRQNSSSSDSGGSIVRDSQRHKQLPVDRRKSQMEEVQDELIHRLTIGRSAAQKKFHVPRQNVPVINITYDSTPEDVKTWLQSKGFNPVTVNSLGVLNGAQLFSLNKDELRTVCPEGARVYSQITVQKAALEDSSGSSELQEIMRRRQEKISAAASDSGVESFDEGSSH

Binder	stoichiometry N (14-3-3θ [2])	Kd (14-3-3θ [2]) [nM]	also measured
MBP-14-3-3θ (natural protein, human, UniProt P27348 1-245, looked up, also called MBP-tagged 14-3-3θ; source: E. coli BL21(DE3), purified (amylose resin, SEC)) MEKTELIQKAKLAEQAERYDDMATCMKAVTEQGAELSNEERNLLSVAYKNVVGGRRSAWRVISSIEQKTDTSDKKLQLIKDYREKVESELRSICTTVLELLDKYLIANATNPESKVFYLKMKGDYFRYLAEVACGDDRKQTIDNSQGAYQEAFDISKKEMQPTHPIRLGLALNFSVFYYEILNNPELACTLAKTAFDEAIAELDTLNEDSYKDSTLIMQLLRDNLTLWTSDSAGEECDAAEGAEN	–	–	binding result [1]: binds
Ac-TLPRSS[pS]MAAGLEK-NH2 (SMILES CSCC[C@H](NC(=O)[C@H](COP(=O)(O)O)NC(=O)[C@H](CO)NC(=O)[C@H](CO)NC(=O)[C@H](CCCNC(=N)N)NC(=O)[C@@H]1CCCN1C(=O)[C@H](CC(C)C)NC(=O)[C@@H](NC(C)=O)[C@@H](C)O)C(=O)N[C@@H](C)C(=O)N[C@@H](C)C(=O)NCC(=O)N[C@@H](CC(C)C)C(=O)N[C@@H](CCC(=O)O)C(=O)N[C@@H](CCCCN)C(N)=O) [Site 4 peptide (pS366)]	~1 peptide per 14-3-3θ subunit (two peptides per 14-3-3θ dimer)	–	–
Ac-DSYSN[pT]LPVRKSVTPKNSYATTENKTLPRSS[pS]MAAGLE-NH2 (SMILES CSCC[C@H](NC(=O)[C@H](COP(=O)(O)O)NC(=O)[C@H](CO)NC(=O)[C@H](CO)NC(=O)[C@H](CCCNC(=N)N)NC(=O)[C@@H]1CCCN1C(=O)[C@H](CC(C)C)NC(=O)[C@@H](NC(=O)[C@H](CCCCN)NC(=O)[C@H](CC(N)=O)NC(=O)[C@H](CCC(=O)O)NC(=O)[C@@H](NC(=O)[C@@H](NC(=O)[C@H](C)NC(=O)[C@H](Cc1ccc(O)cc1)NC(=O)[C@H](CO)NC(=O)[C@H](CC(N)=O)NC(=O)[C@H](CCCCN)NC(=O)[C@@H]1CCCN1C(=O)[C@@H](NC(=O)[C@@H](NC(=O)[C@H](CO)NC(=O)[C@H](CCCCN)NC(=O)[C@H](CCCNC(=N)N)NC(=O)[C@@H](NC(=O)[C@@H]1CCCN1C(=O)[C@H](CC(C)C)NC(=O)[C@@H](NC(=O)[C@H](CC(N)=O)NC(=O)[C@H](CO)NC(=O)[C@H](Cc1ccc(O)cc1)NC(=O)[C@H](CO)NC(=O)[C@H](CC(=O)O)NC(C)=O)[C@@H](C)OP(=O)(O)O)C(C)C)C(C)C)[C@@H](C)O)[C@@H](C)O)[C@@H](C)O)[C@@H](C)O)C(=O)N[C@@H](C)C(=O)N[C@@H](C)C(=O)NCC(=O)N[C@@H](CC(C)C)C(=O)N[C@@H](CCC(=O)O)C(N)=O, IRSp53 stretch of 29-40 residues that holds T340 and S366; source: synthetic peptide (Dr. Paul Leavis, Tufts University)) [Sites 2,4 peptide (pT340/pS366)]	~0.5 peptide per 14-3-3θ subunit (one peptide per 14-3-3θ dimer)	67	stoichiometry N (14-3-3θ [3]): 0.5 peptide per 14-3-3θ subunit
AQPKSL[pS]PPQSQSKLSDSYSN[pT]LPVRKS [Sites 1,2 peptide (pS325/pT340)]	~1 peptide per 14-3-3θ subunit	–	–
Ac-LSDSYSN[pT]LPVRKS-NH2 (SMILES CC(=O)N[C@@H](CC(C)C)C(=O)N[C@@H](CO)C(=O)N[C@@H](CC(=O)O)C(=O)N[C@@H](CO)C(=O)N[C@@H](Cc1ccc(O)cc1)C(=O)N[C@@H](CO)C(=O)N[C@@H](CC(N)=O)C(=O)N[C@H](C(=O)N[C@@H](CC(C)C)C(=O)N1CCC[C@H]1C(=O)N[C@H](C(=O)N[C@@H](CCCNC(=N)N)C(=O)N[C@@H](CCCCN)C(=O)N[C@@H](CO)C(N)=O)C(C)C)[C@@H](C)OP(=O)(O)O) [Site 2 peptide (pT340)]	~1 peptide per 14-3-3θ subunit (two peptides per 14-3-3θ dimer)	–	stoichiometry N (14-3-3θ [3]): 1 peptide per 14-3-3θ subunit
Ac-DSYSN[pT]LPVRKSVTPKNSYATTENK[pT]LPRSSS-NH2 (SMILES CC(=O)N[C@@H](CC(=O)O)C(=O)N[C@@H](CO)C(=O)N[C@@H](Cc1ccc(O)cc1)C(=O)N[C@@H](CO)C(=O)N[C@@H](CC(N)=O)C(=O)N[C@H](C(=O)N[C@@H](CC(C)C)C(=O)N1CCC[C@H]1C(=O)N[C@H](C(=O)N[C@@H](CCCNC(=N)N)C(=O)N[C@@H](CCCCN)C(=O)N[C@@H](CO)C(=O)N[C@H](C(=O)N[C@H](C(=O)N1CCC[C@H]1C(=O)N[C@@H](CCCCN)C(=O)N[C@@H](CC(N)=O)C(=O)N[C@@H](CO)C(=O)N[C@@H](Cc1ccc(O)cc1)C(=O)N[C@@H](C)C(=O)N[C@H](C(=O)N[C@H](C(=O)N[C@@H](CCC(=O)O)C(=O)N[C@@H](CC(N)=O)C(=O)N[C@@H](CCCCN)C(=O)N[C@H](C(=O)N[C@@H](CC(C)C)C(=O)N1CCC[C@H]1C(=O)N[C@@H](CCCNC(=N)N)C(=O)N[C@@H](CO)C(=O)N[C@@H](CO)C(=O)N[C@@H](CO)C(N)=O)[C@@H](C)OP(=O)(O)O)[C@@H](C)O)[C@@H](C)O)[C@@H](C)O)C(C)C)C(C)C)[C@@H](C)OP(=O)(O)O, IRSp53 stretch of 29-40 residues that holds T340 and T360; also called doubly-phosphorylated IRSp53 peptide Sites 2,3; source: synthetic peptide (Dr. Paul Leavis, Tufts University)) [Sites 2,3 peptide (pT340/pT360)]	~0.5 peptide per 14-3-3θ subunit (one peptide per 14-3-3θ dimer)	45	–
pIRSp53FS (natural protein, human (from the printed UniProt entry), UniProt Q9UQB8-4 1-521, looked up, natively phosphorylated in HEK293T cells; fluorescein maleimide / rhodamine maleimide on C230 and C519, IRSp53 (BAIAP2), isoform-4, UniProt Q9UQB8-4, full length, S519C; Expressed and purified as m4; also called IRSp53 FRET sensor; phosphorylated IRSp53 (mutant S519C)) MSLSRSEEMHRLTENVYKTIMEQFNPSLRNFIAMGKNYEKALAGVTYAAKGYFDALVKMGELASESQGSKELGDVLFQMAEVHRQIQNQLEEMLKSFHNELLTQLEQKVELDSRYLSAALKKYQTEQRSKGDALDKCQAELKKLRKKSQGSKNPQKYSDKELQYIDAISNKQGELENYVSDGYKTALTEERRRFCFLVEKQCAVAKNSAAYHSKGKELLAQKLPLWQQACADPSKIPERAVQLMQQVASNGATLPSALSASKSNLVISDPIPGAKPLPVPPELAPFVGRMSAQESTPIMNGVTGPDGEDYSPWADRKAAQPKSLSPPQSQSKLSDSYSNTLPVRKSVTPKNSYATTENKTLPRSSSMAAGLERNGRMRVKAIFSHAAGDNSTLLSFKEGDLITLLVPEARDGWHYGESEKTKMRGWFPFSYTRVLDSDGSDRLHMSLQQGKSSSTGNLLDKDDLAIPPPDYGAASRAFPAQTASGFKQRPYSVAVPAFSQGLDDYGARSMSSGSGTLVCTV	–	–	Kd (2xFLAG-Eps8): 42 nM
Ac-ATTENK[pT]LPRSSS-NH2 (SMILES CC(=O)N[C@@H](C)C(=O)N[C@H](C(=O)N[C@H](C(=O)N[C@@H](CCC(=O)O)C(=O)N[C@@H](CC(N)=O)C(=O)N[C@@H](CCCCN)C(=O)N[C@H](C(=O)N[C@@H](CC(C)C)C(=O)N1CCC[C@H]1C(=O)N[C@@H](CCCNC(=N)N)C(=O)N[C@@H](CO)C(=O)N[C@@H](CO)C(=O)N[C@@H](CO)C(N)=O)[C@@H](C)OP(=O)(O)O)[C@@H](C)O)[C@@H](C)O) [Site 3 peptide (pT360)]	~1 peptide per 14-3-3θ subunit (two peptides per 14-3-3θ dimer)	–	–
Ac-QQGKSSSTGNLLD-NH2 (also: phosphoserine at S454, which serine of the chain is not given here) [Site 5 peptide (pS454)]	~1 peptide per 14-3-3θ subunit (two peptides per 14-3-3θ dimer)	12000	–

Reference: PMC6351565, “Mechanism of IRSp53 inhibition by 14-3-3” (Nature Communications, 2019)
